From the supplement of paper PMC10126150
± gives the standard deviation of the averaged measurements.

Test system: ATP
Test: switch fluorescence ratio, 500 uM ATP over buffer (Cy3 cluster intensity, sum of 5 cycles each) (fold (ratio)); higher = stronger signal-on switching upon ATP binding; sequences stand for … in TCGTCGGCAGCGTCAGATGTGTATAAGAGACAGTTTTTTTTTTTTTTTTTTTTTTTTT…TC
Conditions: aptamer strand: ATP DNA aptamer (quencher-CACCTGGGGGAGTATTGCGGAGGAAGG + anchor), 100 nM annealed; ATP concentration: 500 uM
Outline: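 After annealing to 100 nM quencher-labelled ATP aptamer, Cy3-labelled switching-strand clusters on a modified Illumina MiSeq flow-cell were imaged in selection buffer. A second image followed after 15 min with 500 uM ATP at 22 °C, and five such buffer/ATP cycles were done, each separated by NaOH stripping and re-annealing. The fluorescence ratio, averaged per switch-domain sequence, is summed target-cycle over summed buffer-cycle Cy3 intensity per cluster, with clusters outside 100-1000 RFU excluded.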
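Also: ATP exposure 15 min at 22 °C before imaging.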

For TGGTCATTGC, the switch fluorescence ratio was 1.064 ± 0.0086.
TGGTCCAGCG showed a switch fluorescence ratio of 0.998 ± 0.015.
In the case of TGGTCCTCCG, the switch fluorescence ratio is reported as 1.87 ± 0.31.
Sequence TGGTCGGCAA has a switch fluorescence ratio of 1.045 ± 0.0081.
TGGTCTAGGT showed a switch fluorescence ratio of 1.01 ± 0.028.
Work on TGGTCTGCCC yielded a switch fluorescence ratio of 0.975 ± 0.053.
TGGTCTTCAT was tested, and the switch fluorescence ratio was 1 ± 0.022.
TGGTGAAATG showed a switch fluorescence ratio of 1 ± 0.013.
TGGTGAAGGG gave a switch fluorescence ratio of 0.976 ± 0.016.
TGGTGACTTA was tested, and the switch fluorescence ratio was 0.974 ± 0.039.
With TGGTGAGGGT the switch fluorescence ratio was 0.999 ± 0.025.
With TGGTGATGGC the switch fluorescence ratio was 0.991 ± 0.012.
Work on TGGTGATGGT yielded a switch fluorescence ratio of 1.03 ± 0.058.
With TGGTGCACC the switch fluorescence ratio was 0.983 ± 0.042.
In the case of TGGTGCCCCA, the switch fluorescence ratio is reported as 1.03 ± 0.023.
Work on TGGTGCGGGG yielded a switch fluorescence ratio of 0.999 ± 0.026.
With TGGTGGCCGC the switch fluorescence ratio was 0.982 ± 0.032.
TGGTGGGATG showed a switch fluorescence ratio of 0.977 ± 0.021.
Sequence TGGTGGGATT has a switch fluorescence ratio of 0.995 ± 0.012.
TGGTGGGGGC showed a switch fluorescence ratio of 1 ± 0.052.
Sequence TGGTGGGTGT has a switch fluorescence ratio of 0.987 ± 0.024.
TGGTGGGTTC gave a switch fluorescence ratio of 1.03 ± 0.067.
With TGGTGGTGGT the switch fluorescence ratio was 1.01 ± 0.033.
In the case of TGGTGGTTTT, the switch fluorescence ratio is reported as 1.03 ± 0.025.
TGGTGTATGT showed a switch fluorescence ratio of 0.995 ± 0.022.
Sequence TGGTGTGGAG has a switch fluorescence ratio of 1.062 ± 0.006.
Work on TGGTGTTGGA yielded a switch fluorescence ratio of 0.9906 ± 0.0068.
TGGTTACCGA gave a switch fluorescence ratio of 1 ± 0.014.
Work on TGGTTACTGT yielded a switch fluorescence ratio of 1.02 ± 0.022.
TGGTTAGGGG gave a switch fluorescence ratio of 1.06 ± 0.084.
TGGTTAGTTT showed a switch fluorescence ratio of 0.997 ± 0.016.
TGGTTATATT showed a switch fluorescence ratio of 1.02 ± 0.026.
Work on TGGTTCCCAG yielded a switch fluorescence ratio of 1.04 ± 0.031.
TGGTTCGCTA gave a switch fluorescence ratio of 1.02 ± 0.013.
For TGGTTCGGAA, the switch fluorescence ratio was 1.016 ± 0.0048.
In the case of TGGTTCTAG, the switch fluorescence ratio is reported as 0.989 ± 0.024.
With TGGTTCTTTT the switch fluorescence ratio was 1.02 ± 0.056.
TGGTTGACGA was tested, and the switch fluorescence ratio was 1.01 ± 0.14.
With TGGTTGCGGC the switch fluorescence ratio was 0.986 ± 0.03.
Work on TGGTTGGGAT yielded a switch fluorescence ratio of 1 ± 0.04.
Work on TGGTTGGGGT yielded a switch fluorescence ratio of 1.01 ± 0.054.
For TGGTTGGT, the switch fluorescence ratio was 0.9755 ± 0.0095.
In the case of TGGTTGTCCC, the switch fluorescence ratio is reported as 1.01 ± 0.038.
TGGTTGTTCC was tested, and the switch fluorescence ratio was 1.03 ± 0.025.
TGGTTGTTTT showed a switch fluorescence ratio of 0.99 ± 0.018.
For TGGTTTAAGG, the switch fluorescence ratio was 0.9844 ± 0.0088.
Sequence TGGTTTAAGT has a switch fluorescence ratio of 0.987 ± 0.027.
With TGGTTTAATT the switch fluorescence ratio was 1.01 ± 0.017.
In the case of TGGTTTATAT, the switch fluorescence ratio is reported as 1 ± 0.013.
TGGTTTCCCA was tested, and the switch fluorescence ratio was 0.9738 ± 0.0042.
For TGGTTTGCGC, the switch fluorescence ratio was 1.36 ± 0.46.
Work on TGGTTTGGGC yielded a switch fluorescence ratio of 0.984 ± 0.034.
In the case of TGGTTTGTAT, the switch fluorescence ratio is reported as 1 ± 0.029.
In the case of TGGTTTGTGG, the switch fluorescence ratio is reported as 0.974 ± 0.037.
For TGGTTTTAGC, the switch fluorescence ratio was 0.9886 ± 0.0028.
Sequence TGGTTTTCGT has a switch fluorescence ratio of 1.01 ± 0.028.
In the case of TGGTTTTGTG, the switch fluorescence ratio is reported as 0.9862 ± 0.0015.
With TGGTTTTTGC the switch fluorescence ratio was 0.961 ± 0.057.
TGGTTTTTTA gave a switch fluorescence ratio of 0.993 ± 0.025.
TGTAAAAGGT showed a switch fluorescence ratio of 1.04 ± 0.092.
Sequence TGTAAAGGCG has a switch fluorescence ratio of 0.953 ± 0.039.
Sequence TGTAAAGGGA has a switch fluorescence ratio of 0.998 ± 0.024.
With TGTAACCTTT the switch fluorescence ratio was 1.04 ± 0.018.
TGTAAGCCTT was tested, and the switch fluorescence ratio was 1.03 ± 0.079.
TGTAAGCTGG gave a switch fluorescence ratio of 1.03 ± 0.073.
With TGTAAGGGAC the switch fluorescence ratio was 1.07 ± 0.034.
Work on TGTAAGGGGT yielded a switch fluorescence ratio of 1.06 ± 0.085.
TGTAAGTCTT gave a switch fluorescence ratio of 0.966 ± 0.032.
With TGTAAGTGCG the switch fluorescence ratio was 0.9833 ± 0.0063.
Sequence TGTAATGCCC has a switch fluorescence ratio of 0.991 ± 0.02.
Work on TGTACGTAG yielded a switch fluorescence ratio of 1.01 ± 0.012.
TGTACTAGGA gave a switch fluorescence ratio of 0.968 ± 0.018.
Sequence TGTACTGGGG has a switch fluorescence ratio of 1.003 ± 0.0094.
Work on TGTAGCAGCG yielded a switch fluorescence ratio of 1.1 ± 0.16.
With TGTAGCATCT the switch fluorescence ratio was 1.081 ± 0.0096.
For TGTAGGGGTA, the switch fluorescence ratio was 0.98 ± 0.045.
TGTAGGGGTT gave a switch fluorescence ratio of 1 ± 0.044.
Sequence TGTAGTACCG has a switch fluorescence ratio of 1.021 ± 0.0056.
TGTAGTACTT gave a switch fluorescence ratio of 1.02 ± 0.016.
Sequence TGTAGTTGGT has a switch fluorescence ratio of 1.014 ± 0.0096.
TGTAGTTTGA was tested, and the switch fluorescence ratio was 1 ± 0.012.
TGTATACTTT was tested, and the switch fluorescence ratio was 1.018 ± 0.0081.
With TGTATAGGGT the switch fluorescence ratio was 1.01 ± 0.048.
TGTATATGG gave a switch fluorescence ratio of 0.958 ± 0.016.
With TGTATTGGTT the switch fluorescence ratio was 0.99 ± 0.034.
